# Measured values taken from US12416034B2, “Recombinant production of steviol glycosides” (EVOLVA SA, priority 2011, dated 2025).
# B1: EUGT11: UDP glycosyl transferase from Oryza sativa (GenBank AC133334), SEQ ID NO:152 (protein, listed as Oryza sativa)
# chain: MDSGYSSSYAAAAGMHVVICPWLAFGHLLPCLDLAQRLASRGHRVSFVSTPRNISRLPPVRPALAPLVAFVALPLPRVEGLPDGAESTNDVPHDRPDMVELHRRAFDGLAAPFSEFLGTACADWVIVDVFHHWAAAAALEHKVPCAMMLLGSAHMIASIADRRLERAETESPAAAGQGRPAAAPTFEVARMKLIRTKGSSGMSLAERFSLTLSRSSLVVGRSCVEFEPETVPLLSTLRGKPITFLGLMPPLHEGRREDGEDATVRWLDAQPAKSVVYVALGSEVPLGVEKVHELALGLELAGTRFLWALRKPTGVSDADLLPAGFEERTRGRGVVATRWVPQMSILAHAAVGAFLTHCGWNSTIEGLMFGHPLIMLPIFGDQGPNARLIEAKNAGLQVARNDGDGSFDREGVAAAIRAVAVEEESSKVFQAKAKKLQEIVADMACHERYIDGFIQQLRSYKD
# Assays:
# [1] = In vitro transcribed and translated UGTs incubated with RebA and UDP-glucose, LC-MS; format: biochemical
# Procedure: In vitro transcription and translation of these genes was performed, and the resulting UGTs incubated with RebA and UDP-glucose. Following incubation, the reactions were analyzed by LC-MS. […] See LC-MS chromatograms in FIG. 4. As shown in the left panel of FIG. 4, UGT91D2e produced a trace amount of RebD when RebA was used as the feedstock.
# EUGT11 was produced by in vitro transcription and translation, and incubated with various substrates in the RebD pathway. Similar experiments were carried out using in vitro transcribed and translated UGT91D2e. […] Compounds 1-3 were identified solely by mass and expected retention time. The numbers shown in FIG. 3 are the average peak height of the indicated steviol glycoside obtained from a LC-MS chromatogram, and, although not quantitative, can be used to compare the activity of the two enzymes. […] Both enzymes were able to convert steviol 19-O-monoglucoside (SMG) to compound 1, with EUGT11 being about ten times more efficient than UGT91D2e at converting 19-SMG to compound 1.
# Both enzymes were able to convert RebA to RebD. However, EUGT11 was approximately 30 times better at converting RebA to RebD. Overall, it appears that EUGT11 produces more product than UGT91D2e in all reactions (with similar time, concentrations, temperature, and purity of enzyme) except the conversion of rubusoside to stevioside.
# [2] = Denaturation temperature by differential scanning calorimetry (DSC); format: physicochemical; details: 6HIS-purified enzymes, 91D2e-b GST-purified
# Procedure: To assess the thermal stability of EUGT11 and to compare it with the other UGTs in the steviol glycosylation pathway, denaturation temperatures of the proteins were determined using differential scanning calorimetry (DSC). Use of DSC thermograms to estimate denaturation temperatures, TD, is described, for example, by E. Freire in Methods in Molecular Biology 1995, Vol. 40 191-218. DSC was performed (using 6HIS-purified EUGT11, yielding an apparent TD of 39° C.; while when GST-purified 91D2e-b was used, the measured TD was 79° C. For reference, the measured TD when using 6HIS-purified UGT74G1, UGT76G1 and UGT85C2 was 86° C. in all cases. One of skill in the art will recognize that enzyme immobilization or addition of thermal protectants can be added to the reactions to improve stability of the protein. Non-limiting examples of thermal protectants include trehalose, glycerol, ammonium sulphate, betaine, trimethylamine oxide, and proteins.
# [3] = Enzyme kinetics with UDP-glucose as substrate; format: biochemical
# Procedure: A series of experiments were performed to determine kinetic parameters of EUGT11 and 91D2e-b. For both enzymes, 100 μM RebA, 300 μM UDP-glucose, and 10 U/mL Alkaline Phosphatase (Fermentas/Thermo Fisher, Waltham, MA) were used in the reactions. For EUGT11, the reactions were performed at 37° C. using 100 mM Tris-HCl, pH 7, and 2% enzyme. For 91D2e-b, the reactions were performed at 30° C. using 20 mM Hepes-NaOH, pH 7.6, 20% (by volume) enzyme. The initial velocities (V0) were calculated in the linear range of a product versus time plot.
# Vmax and KM parameters were determined from the curve-fit Lineweaver-Burk data, calculated from the x- and y intercepts (x=0, y=1/Vmax) and (y=0, x=−1/KM). Additionally, the same parameters also were calculated by a non-linear least squares regression, using the SOLVER function in Excel. The results obtained with both methods for EUGT11 and RebA are presented in Table 12, along with all the kinetic parameters of this example. Kcat is calculated based on Vmax divided by the approximate amount of protein in the assay.
# In order to investigate the influence of UDP-glucose concentration in the glycosylation reaction, as well as the affinity of EUGT11 for UDP-glucose, similar kinetics analysis were performed. EUGT11 was incubated with increasing amounts of UDP-glucose (20 μM, 50 μM, 100 μM, and 200 μM), maintaining an excess of RebA (500 μM).
# In the case of UGT91D2e-b, RebA concentrations assayed were 50 μM, 100 μM, 200 μM, 300 μM, 400 μM and 500 μM. Concentration of UDP-glucose was always three times the concentration of RebA and incubation was performed at 30° C., in the reaction conditions described above for UGT91D2e-b. Additionally, kinetic parameters of UGT91D2e-b towards UDP-glucose were determined. UGT91D2e-b was incubated with increasing amounts of UDP-glucose (30 μM, 50 μM, 100 μM, and 200 μM), maintaining an excess of RebA (1500 μM). incubation was performed at 30° C., in optimal conditions for UGT91D2e-b.
molecule,measurement,setting,value
B1,amount of RebD produced when RebA was used as the feedstock,"[1]; LC-MS chromatograms, FIG. 4",significant amount
same,efficiency at converting RebA to RebD compared with UGT91D2e,"[1]; in vitro transcribed and translated enzymes, preliminary quantification",approximately 30 times
same,denaturation temperature TD,[2],39 °C
same,Kcat,[3]; Lineweaver-Burk plot,0.202 s⁻¹
same,Km,[3]; Lineweaver-Burk plot,118 µM
same,Vmax,[3]; Lineweaver-Burk plot,0.78 µM/min
same,Kcat,[3]; Nonlinear Least Square Fit,0.2053 s⁻¹
same,Km,[3]; Nonlinear Least Square Fit,130 µM
same,Vmax,[3]; Nonlinear Least Square Fit,0.79 µM/min
